Test results from patent publication US20210292423A1 (published 2021).
Substitutions are numbered along the chain they refer to.

B1: CODV-Fab 7G3x4E7 antibody-like binding protein (bispecific antibody)
light: DVVMTQTPVSLSVSLGGQVSISCRSSQSLEHNNGNTYLSWYLQKPGQSPQPLIYKVSNRFSGISDRFSGSGSGTDFTLKISRVEPDDLGVYYCGQGTQYPFTFGPGTKLELKGQPKAAPDFVMTQSPSSLTVTAGEKVTMSCKSSQSLLNSGNQKNYLTWYLQKPGQPPKLLIYWASTRESGVPDRFTGSGSGTDFTLTISSVQAEDLAVYYCQNDYSYPYTFGGGTKLEIKTKGPSRTVAAPSVFIFPPSDEQLKSGTASVVCLLNNFYPREAKVQWKVDNALQSGNSQESVTEQDSKDSTYSLSSTLTLSKADYEKHKVYACEVTHQGLSSPVTKSFNRGEC
heavy: EVQLQQSGPELVKPGASVKMSCKASGYTFTDYYMKWVKQSHGKSLEWIGDIIPSNGATFYNQKFKGKATLTVDRSSSTAYMHLNSLTSEDSAVYYCTRSHLLRASWFAYWGQGTLVTVSASEVQVVETGGSLVQPGKSLKLTCATSGFTFSNAWMHWVRQSPEKQLEWVAQIKDKSNNYATYYAESLKGRFTISRDDPKRSIYLQMNSLREEDTAIYYCRYVHYGIGYAMDAWGQGTSVTVSSRTASTKGPSVFPLAPSSKSTSGGTAALGCLVKDYFPEPVTVSWNSGALTSGVHTFPAVLQSSGLYSLSSVVTVPSSSLGTQTYICNVNHKPSNTKVDKKVEPKSCDKTHTHHHHHH
notes: also called 7G3 × 4E7
B2: CODV-Fab 7G3x18F5 antibody-like binding protein (bispecific antibody)
light: B1 light with V3L, E30V, N32T, P51L, F60L, Q98H, P105A
heavy: EVQLQQSGPELVKPGASVKMSCKASGYTFTDYYMKWVKQSHGKSLEWIGDIIPSNGATFYNQKFKGKATLTVDRSSSTAYMHLNSLTSEDSAVYYCTRSHLLRASWFAYWGQGTLVTVSASEVQVVETGGSLVQPGKSLKLTCATSGFTFTNAWMHWVRRSPEKQLEWVAQIKDKSNNYATYYAESVKGRFTISRDDSKSSIYLQMNSLKEEDTAIYYCRYVHYRFAYALDAWGRGTSVSVSSRTASTKGPSVFPLAPSSKSTSGGTAALGCLVKDYFPEPVTVSWNSGALTSGVHTFPAVLQSSGLYSLSSVVTVPSSSLGTQTYICNVNHKPSNTKVDKKVEPKSCDKTHTHHHHHH
B3: 18F5-H10 Fab (Fab, V domains shown)
VH: EVQVVETGGSLVQPGKSLKLTCATSGFTFTNAWMHWVRRSPEKQLEWVAQIKDKSNNYATYYAESVKGRFTISRDDSKSSIYLQMNSLKEEDTAIYYCRYVHYRFAYALDAWGRGTSVSVSS
VL: DVLMTQTPVSLSVSLGGQVSISCRSSQSLVHTNGNTYLSWYLQKPGQSPQLLIYKVSNRLSGISDRFSGSGSGTDFTLKISRVEPDDLGVYYCGQGTHYPFTFGAGTKLELKR
notes: also called BDX-18F5-H10
B4: 4B4-D7 Fab (Fab, V domains shown)
VH: EVQLVETGGRLVQPGRSLKLTCATSGFTFSNAWMHWVRQSPEKQLEWVAQIKARSNNYATYYAESVKGRFTISRDDSKSTIYLQMNSLKEEDTAIYYCRGTYYASKPFDYWGQGVMVTVSS
VL: DVVMTQTPVSLSVSLGGQVSISCRSSQSLVHDNGNTYLSWSLQRPGQSPQVLIYKVSNRFSGTSDRFTGSGSGTDFTLKISRVEPDDLGVYYCGQGTQYPFTFGSGTKLEIKR
notes: also called BDW-4B4-D7
B5: 20G6-F3 Fab (Fab, V domains shown)
VH: B4 VH with R10S, R16K, S30T, N31K, A53D, R54K, N57S, T101V, S105L, K106S
VL: B4 VL with D32N, S41Y, R44K, V51S, T63F, T68S, E84D
notes: also called BDW-20G6-F3
B6: 4E7-C9 Fab (Fab, V domains shown)
VH: EVQVVETGGSLVQPGKSLKLTCATSGFTFSNAWMHWVRQSPEKQLEWVAQIKDKSNNYATYYAESLKGRFTISRDDPKRSIYLQMNSLREEDTAIYYCRYVHYGIGYAMDAWGQGTSVTVSS
VL: B3 VL with L3V, V30E, T32N, L51P, L60F, H98Q, A105P
notes: also called BDX-4E7-C9

Columns and labels:
[1] = biological target: T1, human CD3ε/δ-Fc fusion protein (soluble recombinant CD3ε/δ complex) (human, UniProt P04234 22-105); assay: SPR Biacore, CODV-Fab
T1 construct: also called huCD3ε/δ; huCD3; not shown: hinge, CH2, CH3 of human IgG with tag
T1 sequence (chain, as listed by the source mutant, chain 1 of 2): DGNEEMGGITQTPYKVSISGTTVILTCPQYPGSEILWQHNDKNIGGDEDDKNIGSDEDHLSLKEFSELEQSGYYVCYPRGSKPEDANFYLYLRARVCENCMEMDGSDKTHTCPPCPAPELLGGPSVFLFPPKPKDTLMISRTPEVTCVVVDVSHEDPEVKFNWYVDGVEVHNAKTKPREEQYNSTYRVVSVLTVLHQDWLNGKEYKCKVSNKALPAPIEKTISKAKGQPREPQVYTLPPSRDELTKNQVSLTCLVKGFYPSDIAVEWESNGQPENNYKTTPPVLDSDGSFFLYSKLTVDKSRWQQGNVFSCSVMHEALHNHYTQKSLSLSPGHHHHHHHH
T1 sequence (P04234 22-105, stated change not applied, chain 2 of 2): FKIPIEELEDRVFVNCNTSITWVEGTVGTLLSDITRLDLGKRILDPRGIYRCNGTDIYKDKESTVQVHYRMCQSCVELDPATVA
Description: (§1) Binding affinities of anti-CD3 binding Fabs or CODV-Fabs were measured by surface plasmon resonance (SPR) using a Biacore3000 instrument (GE Healthcare). Assay buffer was HBS-EP (BR-1001-88, GE Healthcare). Capture of CD3ε/δ-Fc fusion proteins was achieved using the human antibody capture kit (GE Healthcare). […] The CD3εδ-Fc fusions proteins were captured at 10 μl/min to approx. 70 RU to yield Rmax values of 30 RU. Binding kinetics with the anti-CD3 Fabs or CODV-Fabs was measured at 30 μl/min for 240 sec. and 600 sec. for association and dissociation phase, respectively. Twofold dilutions of Fabs from 3 to 400 nM in assay buffer were used. All Fab concentrations were run in duplicate together with duplicate buffer blanks for double referencing. Regeneration of the capture surface was performed with a 1 min injection of 3M MgCl2 solution at 30 μl/min. For data analysis the BIAevaluation software v.4.1 (GE Healthcare) was used. Data were fit globally using a 1:1 Langmuir model with mass transfer.

[2] = biological target: human CD123 (IL3RA) on cells (human, UniProt P26951 19-378); assay: cell-based or functional assay
human CD123 (IL3RA) on cells, sequence (P26951 19-378): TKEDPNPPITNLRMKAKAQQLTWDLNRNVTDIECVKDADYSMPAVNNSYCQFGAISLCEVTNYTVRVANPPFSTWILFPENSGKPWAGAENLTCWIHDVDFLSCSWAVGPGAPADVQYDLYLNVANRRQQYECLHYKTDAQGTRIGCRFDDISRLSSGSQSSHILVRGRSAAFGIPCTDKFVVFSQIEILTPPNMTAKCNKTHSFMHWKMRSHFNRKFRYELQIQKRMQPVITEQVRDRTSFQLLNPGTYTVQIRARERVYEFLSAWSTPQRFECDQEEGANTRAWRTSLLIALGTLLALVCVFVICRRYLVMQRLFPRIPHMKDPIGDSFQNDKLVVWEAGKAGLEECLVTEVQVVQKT

[3] = biological target: T2, human CD3ε and CD3δ co-expressed on HEK293F cells (human, UniProt P07766 23-207; P04234 22-171); assay: flow cytometry, transfected HEK293F
T2 construct: also called huCD3ε/δ (transfected cells); huCD3e + huCD3d
Description: (§2) To analyze binding of antibodies to human CD3ε and human CD3δ expressed on the surface of cells, HEK293F cells were transfected with both constructs either alone or in co-transfection and signals were measured by flow cytometry. For transfection procedure FuGENE HD Transfection Reagent (Promega, #E2311) was used according to manufacturer's protocol.
(§3) Antibodies for staining were seeded at 1 μg in 50 μl per well Stain Buffer with FBS (BD Pharmingen) in 96-well U-bottom suspension culture plates (Greiner bio-one). Harvested transfected cells were resuspended in Stain Buffer with FBS and were added at 50 μl per well to the antibodies. Cells were incubated at 4° C. in the dark for 30 min and were washed twice. 0.5 μg secondary antibody Goat F(ab′)2 Anti-Human IgG-FITC (Beckman Coulter, #732598) or Goat F(ab′)2 Anti-Human kappa-PE (Southern Biotech, #206209), respectively, in combination with 0.5 μg 7-AAD per well was added in 100 μl Stain Buffer with FBS. Cells were incubated at 4° C. in the dark for 15 min and were washed twice. For measurement, cells were resuspended in 200 μl Stain Buffer with FBS. Cells were measured using the MACSQuant (Miltenyi Biotec) or LSRII (BD) flow cytometer, respectively. Further data analyses were performed using the FlowJo software (Tree Star, Inc.).

[4] = biological target: T3, human CD3ε expressed alone on HEK293F cells (human, UniProt P07766 23-207); assay: flow cytometry, transfected HEK293F
T3 construct: also called huCD3ε
Description: as §2, §3

[5] = biological target: T1, human CD3ε/δ-Fc fusion protein (soluble …); assay: SPR Biacore, Fab
Description: as §1

[6] = biological target: T4, human CD3 (TCR complex) on primary human T cells or Jurkat cells (human, UniProt P07766 23-207); assay: flow cytometry, primary human T cells
T4 construct: on the cells it stands in the whole TCR/CD3 complex; also called Jurkat E6-1 (expressing human TCR)
Description: The binding capacity of the CD3-Fabs was determined by flow cytometry. Primary human T cells were used as target cells. Therefore, peripheral blood mononuclear cells (PBMCs) were isolated from 200 ml peripheral blood of healthy donors treated with EDTA by Ficoll density centrifugation. 15 ml Histopaque (Sigma-Aldrich) was preloaded on a 50 ml Leucosep-Tube (Greiner bio-one). Blood was diluted with autoMACS Rinsing Buffer+1% BSA (Miltenyi Biotec) and loaded on the membrane of a total of ten prepared tubes. Tubes were centrifuged without brake for 10 min at 1000 xg. PBMCs were collected and washed with autoMACS Rinsing Buffer+1% BSA three times. Finally, PBMCs were resuspended in autoMACS Running Buffer (Miltenyi Biotec) for isolation of T lymphocytes by autoMACSpro technology using the Pan T Cell isolation Kit (Miltenyi Biotec) according to manufacturer's instructions. Purity of separated T cells was analyzed by MACSQuant flow cytometry using the human 7-Color Immunophenotyping Kit (Miltenyi Biotec). Isolated T cells were resuspended in Stain Buffer with FBS (BD Pharmingen) and 1E5 cells in 100 μl per well were seeded in 96-well U-bottom suspension culture plates (Greiner bio-one). Fab antibodies were diluted 1:3 in serial in PBS (Invitrogen) and 5 μl each were added to the cells at a final maximum concentration of 30000 ng/ml. The assay was incubated for 45 min at 4° C. Cells were washed twice with Stain Buffer with FBS and 1 μg secondary antibody Goat F(ab′)2 Anti-Human kappa-FITC (Beckman Coulter, #732621) per well was added in 100 μl Stain Buffer with FBS per well. The assay was incubated for 20 min at 4° C. and washed twice afterwards. Cells were resuspended in 150 μl Stain Buffer with FBS per well and were measured using the MACSQuant (Miltenyi Biotec) or LSRII (BD) flow cytometer. Further data analyses were performed using the FlowJo software (Tree Star, Inc.). Read out was percentage of cells positive for antibody binding. Cells treated only with the secondary but no primary antibody were used to set the gates. EC50 Curves were calculated by XLfit (Algorithm 205), EC50 values were calculated as inflection point of the slope (data are shown in table 6).

[7] = biological target: T1, human CD3ε/δ-Fc fusion protein (soluble …); assay: SPR Biacore, CD3εδ-Fc captured, Fab analyte
Description: as §1

[8] = biological target: T1, human CD3ε/δ-Fc fusion protein (soluble …); assay: SPR, CD3-Fc captured, Fab 100 nM
Description: (§4) Binding was tested by SPR using a BIAcore3000 instrument run with HBS-EP buffer. Recombinant huCD3 proteins (ε/δ (PB01226), ε/γ (PB01225)) were captured at 10 μl/min via Fc-tag by anti-human Fc capture antibody MAB1302 (Millipore) immobilized on a CM5 sensor chip. Anti-CD3 Fabs were used as analytes at 100 nM with association and dissociation times of 240 sec and 300 sec, respectively at 30 μl/min. After each cycle the surfaces were regenerated by a 2 min pulse of 10 mM glycine buffer pH2.5.

[9] = biological target: recombinant huCD3ε/γ protein with Fc-tag (PB01225) (human, UniProt P07766 23-126; P09693 23-116); assay: SPR, CD3-Fc captured, Fab 100 nM
Description: as §4

[10] = biological target: T5, human CD3δ expressed alone on HEK293F cells (human, UniProt P04234 22-171); assay: flow cytometry, HEK293F transfected with huCD3δ
T5 construct: entry includes the signal peptide; also called huCD3δ
T5 sequence (P04234 22-171 limits assumed, stated change not applied): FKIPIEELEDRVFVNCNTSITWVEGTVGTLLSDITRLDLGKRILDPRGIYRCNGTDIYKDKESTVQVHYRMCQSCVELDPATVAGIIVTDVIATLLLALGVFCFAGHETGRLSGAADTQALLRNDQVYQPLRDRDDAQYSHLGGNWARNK
How it was run: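 HEK293F cells transfected with huCD3δ alone, harvested 1–3 days post-transfection. Cells stained with 1 μg antibody for 30 min at 4 °C, then anti-human IgG-FITC or anti-human kappa-PE secondary plus 7-AAD for 15 min at 4 °C; binding read by flow cytometry.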

[11] = biological target: T1, human CD3ε/δ-Fc fusion protein (soluble …); assay: SPR Biacore, Fab; remark: listed apart in the source
Description: as §1

| Binder | Kd [1] | koff [1] | kon [1] | Activity EC50 [ng/ml], cytotoxic assay on THP-1 with human T cells [2] | % antibody positive transfected cells [3] | % antibody positive transfected cells [4] | Kd [5] | koff [5] | kon [5] | EC50 [6] | Kd [7] | koff [7] | kon [7] | RU of Fab binding at 100 nM [8] | RU of Fab binding at 100 nM [9] | binding result [10] | Kd [11] | koff [11] | kon [11] |
| --- | --- | --- | --- | --- | --- | --- | --- | --- | --- | --- | --- | --- | --- | --- | --- | --- | --- | --- | --- |
| B1 | 16 nM | 0.0019 s⁻¹ | 120000 M⁻¹ s⁻¹ | 12 ng/mL | – | – | – | – | – | – | – | – | – | – | – | – | – | – | – |
| B2 | – | – | – | 61 ng/mL | – | – | – | – | – | – | – | – | – | – | – | – | – | – | – |
| B3 | – | – | – | – | 70.4% | 70.6% | 1 nM | 0.00018 s⁻¹ | 200000 M⁻¹ s⁻¹ | 4.1 nM | 0.89 nM | 0.00018 s⁻¹ | 200000 M⁻¹ s⁻¹ | 13 RU | 7 RU | no binding (tested: <20% of binding of huCD3e + huCD3d) | – | – | – |
| B4 | – | – | – | – | 69.5% | 71.5% | 27 nM | 0.0029 s⁻¹ | 110000 M⁻¹ s⁻¹ | 15.3 nM | 27 nM | 0.0029 s⁻¹ | 110000 M⁻¹ s⁻¹ | 11 RU | 3 RU | no binding (tested: <20% of binding of huCD3e + huCD3d) | 8.79 nM | 0.00285 s⁻¹ | 326000 M⁻¹ s⁻¹ |
| B5 | – | – | – | – | 67.4% | 68.6% | 8 nM | 0.00027 s⁻¹ | 35000 M⁻¹ s⁻¹ | 14 nM | 7.7 nM | 0.00027 s⁻¹ | 35000 M⁻¹ s⁻¹ | 7 RU | 4 RU | no binding (tested: <20% of binding of huCD3e + huCD3d) | – | – | – |
| B6 | – | – | – | – | 66.4% | 69% | 17 nM | 0.0015 s⁻¹ | 89000 M⁻¹ s⁻¹ | 6.2 nM | 17 nM | 0.0016 s⁻¹ | 89000 M⁻¹ s⁻¹ | 8 RU | 6 RU | no binding (tested: <20% of binding of huCD3e + huCD3d) | – | – | – |
